Laboratory results taken from patent EP1574569A1, “THREE-DIMENSIONAL STRUCTURE OF LIPOCALIN-TYPE PROSTAGLANDIN D SYNTHASE AND UTILIZATION OF THE SAME” (RIKEN, priority 2002, dated 2004).
Substitutions are numbered along the chain they refer to. Names and notes keep the numbering of the source.

B1: mouse L-PGDS, Wild Type(C65), Cys^89,186Ala construct, SEQ ID NO:1 (Mus musculus; C186A/C89A) (protein)
chain: QGHDTVQPNFQQDKFLGRWYSAGLASNSSWFREKKAVLYMCKTVVAPSTEGGLNLTSTFLRKNQAETKIMVLQPAGAPGHYTYSSPHSGSIHSVSVVEANYDEYALLFSRGTKGPGQDFRMATLYSRTQTLKDELKEKFTTFSKAQGLTEEDIVFLPQPDKAIQE
B2: mouse L-PGDS mutant F83I (Phe^83Ile) in Cys^89,186Ala construct (Mus musculus; C186A/C89A/F83I) (protein)
chain: B1 chain with F59I
B3: mouse L-PGDS mutant R85E (Arg^85Glu) in Cys^89,186Ala construct (Mus musculus; C186A/C89A/R85E) (protein)
chain: B1 chain with R61E
B4: mouse L-PGDS mutant K92E (Lys^92Glu) in Cys^89,186Ala construct (Mus musculus; C186A/C89A/K92E) (protein)
chain: B1 chain with K68E
B5: mouse L-PGDS mutant T147A (Thr^147Ala) in Cys^89,186Ala construct (Mus musculus; C186A/C89A/T147A) (protein)
chain: B1 chain with T123A
B6: mouse L-PGDS mutant S45A (Ser^45Ala) in Cys^89,186Ala construct (Mus musculus; C186A/C89A/S45A) (protein)
chain: B1 chain with S21A
B7: mouse L-PGDS mutant S81A (Ser^81Ala) in Cys^89,186Ala construct (Mus musculus; C186A/C89A/S81A) (protein)
chain: B1 chain with S57A

How the values were obtained:
[1] = biological target: hematopoietic PGD Synthase (H-PGDS) (Homo sapiens, UniProt O60760); test: Inhibition of hematopoietic PGD synthase enzyme activity ([1-14C]PGH2 to PGD2, thin layer chromatography); format: biochemical; settings: 3 to 300 µM; PGH2 40 µM, 0.1 mM GSH, 25°C, 30 seconds
Method: In the measurement of hematopoietic PGD Synthase (H-PGDS), [1-^14C] PGH2 (40µM) as substrate is reacted in the presence of 0.1 M Tris-HCl (pH 8.0) and 0.1 mM GSH (reduced glutathione) at 25°C for 30 seconds.
After the completion of the reaction, the reaction liquid was subjected to thin layer chromatography to isolate and quantify PGD2 to calculate enzyme activity.

[2] = system: human cerebellum medulloblast (TE671) expressing L-PGDS; test: Inhibition of A23187-stimulated PGD2 production from cells expressing L-PGDS (EIA); format: cell-based; settings: TE-671 cells, A23187 5 µM, compound added 15 minutes before stimulation, medium recovered 15 minutes after
Method: TE-671 is seeded on microplate at the density of 1×10^7. The cells were stimulated by A231875 (5 µ M) to cause PGD2 production. […] The culture medium was recovered 15 minutes after A23187 stimulation to quantify the PGD2 concentration in the culture medium by enzyme immunoassay (EIA).

[3] = biological target: T1, L-PGDS mutant Cys^89,186Ala (Mus musculus, UniProt O09114, C186A/C89A); test: Binding of prostaglandins to L-PGDS by surface plasmon resonance (BiaCore 2000); settings: for binding to L-PGDS (in words): 10 µM (Figure 7)
T1 construct: GST (N, cleaved yes); made in house; host or cells: Escherichia coli DH5α
T1 sequence (O09114 25-189 C89A/C186A): B1 chain
Method: L-PGDS can act as a PGD2 transporter protein. […] That is, L-PGDS act as a PGD2 synthesis enzyme coupled with COX in cells and thereafter as an extracellular transporter of PGD2.
The binding of PGD2, PGE2 or PGF2α to L-PGDS was analyzed with BiaCore 2000 system (BiaCore, Uppsala, Sweden) using the surface plasmon resonance method. L-PGDS mutant Cys^89,186Ala was immobilized on CM5 sensor chip (BIAcore AB) coated with carboxymethyldextran. Binding assay was carried out at a constant flow rate of 30µ l/min. in the concentration range of 0.1 to 10 µ M in both the binding phase and the dissociation phase. After each assay, the sensor chip surface was regenerated with 15 µ l of 1.5 M urea. Rate constant values were calculated using analysis soft wear BIA Evaluation 3.0 soft wear after subtracting control surface (bovine serum albumin) using Langmuir 1: 1 binding model by four independent experiments.

L-PGDS = biological target: T2, L-PGDS (Mus musculus, UniProt O09114); test: Binding of retinoids to L-PGDS
T2 sequence (O09114 25-189): B1 chain with A65C, A162C

H-PGDS = H-PGDS (Homo sapiens, UniProt O60760); test: Affinity of H-PGDS to PGD2; format: binding
[4] = substrate: [H][C@]12C[C@]([H])(OO1)[C@H](C/C=C\CCCC(=O)O)[C@H]2/C=C/[C@@H](O)CCCCC; test: PGDS activity kinetics of L-PGDS mutants; format: biochemical, mouse; settings: other: Km for PGH2, pH=8.0, 25.0 °C
From the text: Since the preparation of recombinant protein having the same PGDS activity as purified wild-type enzyme is easy, Cys^89,186Ala construct was used for this purpose. Various mutants were expressed, purified to homogeneity and L-PGDS activities were compared at pH 8, 9 and 10 (Figure 8) .
After a candidate compound of L-PGDS inhibitor is selected, it is preferably contacted with the enzyme in the presence of the substrate (prostaglandin H2) to confirm an ability of the compound to inhibit the enzyme (see, for example, Shimizu, t., Yamamoto, S., and Hayaishi O. (1979), Purification and Properties of prostaglandin D synthase from rat brain, J. Biol. Chem., 254:5222-5228). The enzyme activity can be measured, for example, as follows:
The substrate [1-^14C]prostaglandin (PG)H2 is synthesized by reacting [1^-14C]arachidonic acid with cyclooxygenase. Since PGH2 is easily decomposed in an aqueous solution (half life: about 5 minutes), it is evaporated to dryness and stored at low temperature(-80°C). The enzyme reaction is performed by injecting 1 µL of PGH2 solution(acetone or non-volatile diethylenediglycohol solution) with a microsyringe to 49 µ L of 0.1 M phosphate buffer (pH8.0) containing 1 mM dithiothreitol (DTT) and the enzyme. After the reaction at 25 °C for 30 to 60 seconds, the reaction is quenched by the addition of 300 µL of ice-cold mixed solution of ether/methanol/0.1 M citric acid (30:4:1 v/v/v) followed by extraction the substrate and reaction product under acidic condition into ether layer. Subsequently, anhydrous sodium sulfate was added to dehydrate it. An aliquot of organic layer (about 50 µ L) is coated on silica gel thin layer in a low temperature room (4°C) and subjected to silica gel thin layer chromatography in a freezer (-20 °C) (developing solvent: ether/methanol/acetic acid (90:2:1 v/v/v) . After the development, radioactivity of PGD2 fraction and fraction other than it are measured to calculate an enzyme activity based on the conversion ratio to PGD2.
The site-specific mutagenesis was performed using a Quick change site-directed mutagenesis kit (Stratgene, Heiderberg, Germany). The DNA sequence was confirmed by the determination of cycle sequencing by a SequiTherm cycle sequencing kit (Epicentre Technologies, Madison, WI) followed by LI-COR model 4000L automatic DNA sequencer (LI-COR Inc., Lincoln, NE)

Chain of H-PGDS (O60760 whole entry, species assumed): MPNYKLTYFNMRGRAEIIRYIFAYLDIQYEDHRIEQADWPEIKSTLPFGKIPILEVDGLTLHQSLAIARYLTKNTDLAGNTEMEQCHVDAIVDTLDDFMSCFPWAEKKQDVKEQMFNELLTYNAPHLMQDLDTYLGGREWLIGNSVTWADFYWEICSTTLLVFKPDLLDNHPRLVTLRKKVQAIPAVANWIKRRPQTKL
Chain of hematopoietic PGD Synthase (H-PGDS) (O60760 whole entry, species assumed): as above

| Molecule | Km [4] [µM] | kcat/Km [4] [µM^-1Min^-1] | other results |
| --- | --- | --- | --- |
| C1=Cc2ccccc2C(=C2CCN(CCCCc3nn[nH]n3)CC2)c2ccccc21 [AT-56, 4-dibenzo(a,d)cyclohepten-5-ylidene-1-(4-(2H-tetrazole-5-yl)butyl)piperidine] | – | – | inhibition of H-PGDS (in words) [1]: does not inhibit; inhibition of PGD2 production by A23187 stimulation (in words) [2]: dose-dependently inhibited |
| CCCCC[C@H](O)/C=C/[C@H]1[C@H](O)CC(=O)[C@@H]1C/C=C\CCCC(=O)O [PGE2] | – | – | binding to L-PGDS (in words) [3]: Neither PGE2 nor PGF2α is bound |
| CC1=C(/C=C/C(C)=C/C=C/C(C)=C/C=O)C(C)(C)CCC1 [retinal] | – | – | binding to L-PGDS (in words) (L-PGDS): binds |
| CCCCC[C@H](O)/C=C/[C@H]1C(=O)C[C@H](O)[C@@H]1C/C=C\CCCC(=O)O [PGD2] | – | – | kon ([3]; Langmuir 1:1 binding model): 1.24x10^3 ± 37 M^-1sec^-1; Kd ([3]; Langmuir 1:1 binding model, four independent experiments): 89.4 ± 3.4 nM; affinity of H-PGDS to PGD2 (in words) (H-PGDS): does not show high affinity |
| CCCCC[C@H](O)/C=C/[C@@H]1[C@@H](C/C=C\CCCC(=O)O)[C@@H](O)C[C@H]1O [PGF2α] | – | – | binding to L-PGDS (in words) [3]: Neither PGE2 nor PGF2α is bound |
| B1 | 13 | 2.38 | – |
| B2 | 15 | 4.47 | – |
| B3 | 7 | 4.86 | – |
| B4 | 14 | 5.71 | – |
| B5 | 19 | 0.95 | – |
| B6 | 11 | – | – |
| B7 | 12 | 0.50 | – |
